Measurements from the supplement of paper PMC10567573.

B1: WDFY2 (parent)
chain: FWNFKQMWDSKKIGLRQHHCRKCG

Variants of: B1
Test: protein stability index of a GFP-peptide fusion (GPS, HEK-293T) (PSI 1-6); higher = more stable
Details: c terminus: a fixed tail appended
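Note: lentivirally expressed fusions sorted by FACS into six bins by GFP to DsRed ratio, PSI derived from sequencing read proportions per bin multiplied by bin number.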

Protein stability index of substitutions, site by site:
W8: G 2.48, M 3.04, S 2.14, I 1.8, N 3.72, R 2.58, H 2.79, D 3, A 2.12, K 2.69, T 2.07, F 2.25, C 2.34, E 3.3, L 2.59, P 2.16, Y 2.04, Q 2.39, V 2.22
F1: M 1.52, E 3.02, G 2.32, K 2.11, A 2.86, H 2.66, R 2.01, T 2.14, Q 2.11, P 2.99, V 2.86, S 2, Y 1.52, L 1.44, D 2.59, N 2.32, I 2.08, C 2.65, W 2.25
W2: Y 2.25, G 1.8, V 3.04, E 3.29, Q 1.19, L 1.93, T 2.12, D 2.78, M 2.39, S 1.42, I 2.23, P 2.58, F 1.61, A 1.86, N 2.63, R 2.61, H 2.32, K 2.04, C 2.19
L15: E 2.48, A 2.01, D 2.17
D9: W 1.81, N 1.81, R 1.73, I 2.56, E 2.3, K 2.05, C 1.2, S 1.28, G 1.77, V 3.81, T 1, F 1.54, Y 2.95, Q 1.84, H 2.63, P 2.43
K11: P 2.19, R 1.74, M 1.83, G 2.44, L 1.73, Y 2.71, E 2.61, V 1.99, C 2.65, W 1.51, A 2.93, H 2.12, F 2.48, Q 2.54, D 2.1, T 1.76, N 2.7, I 2.5, S 1.25
K5: F 1.38, E 2.22, H 1.66, A 1.81, C 2.66, G 1.5, W 1.38, Q 2.4, M 2.6, V 2.33, I 1.7, T 1.5, P 1.98, D 1.96, S 1.52, R 1.24, N 1.76, Y 1.24, L 1.83
G14: I 1.48, F 1.93, K 2.14, H 1.82, T 2.4, P 1.46, W 1.91, A 1.66, S 3.27, N 1.95, C 2.45, M 1.89, Y 2.53, Q 1.32, V 2, R 1.9, D 2.41, L 2
N3: C 2.08, R 1.42, P 1.85, M 1.35, W 1.65, Y 1.91, F 2.05, I 1.84, D 2.05, G 2.28, Q 2.1, K 1.7, S 3.29, H 1.77, V 3.37, L 1.42, E 2.12, T 1.8, A 1.22
M7: E 2.82, C 2.09, G 1.68, V 1.71, H 2.48, W 1.74, D 2.41, N 1.62, P 2.06, Y 2.34, F 2.09, I 1.92, Q 2.21, K 1.69, S 2.57, A 2.19
